Source: patent publication US20250304677A1 (VIB VZW, published 2025)
Numbering of substitutions follows the chain as printed. In names and notes the source's numbering stands. Several values for one entry are separate records, joined by “and”; a condition that tells them apart may be missing. Equal entries are not always repeated.

B1: P01500012: P0150001 with M32I (VHH)
VHH: EVQLVESGGGLVQPGGSLRLSCAASGSGFSGIIMGWYRQAPGKQRELVATVTSHGTTNYADSVKGRFTISRDNAKNTVYLQMNSLRPEDTAVYYCNAHFPGIYWGKGTLVTVSS
notes: Entry carries a His6 tag
B2: P01500014: P0150001 with M32P (VHH)
VHH: B1 VHH with I32P
notes: Entry carries a His6 tag
B3: P01500019: 2HF09(Q1E, Q5V, A14P, G26E, G28P, I51V, G54H, D72E, N73G, L79Y, K83R, Q108L)-HIS6 (VHH)
VHH: B1 VHH with G26E, G28P, I32M, D72E, N73G
notes: Entry includes the tag; also called P0150019; P01500001[G26E, G28P, D72E, N73G]
B4: P01500041: P01500001(D72P, N73G)-FLAG3-HIS6 (VHH)
VHH: B1 VHH with I32M, D72P, N73G
notes: also called P0150041
B5: P01500042: P01500001(G28T, S30I)-FLAG3-HIS6 (VHH)
VHH: B1 VHH with G28T, S30I, I32M
notes: also called P0150042
B6: P01500043: P01500001(G28T, I33L, D72E)-FLAG3-HIS6 (VHH)
VHH: B1 VHH with G28T, I32M, I33L, D72E
notes: also called P0150043
B7: P01500044: P01500001(S30I, D72E, N73G)-FLAG3-HIS6 (VHH)
VHH: B1 VHH with S30I, I32M, D72E, N73G
notes: also called P0150044
B8: P01500045: P01500001(G26E, I33L)-FLAG3-HIS6 (VHH)
VHH: B1 VHH with G26E, I32M, I33L
notes: also called P0150045
B9: P01500046: P01500001(N73P)-FLAG3-HIS6 (VHH)
VHH: B1 VHH with I32M, N73P
notes: also called P0150046
B10: P01500047: P01500001(G26E, G28T, S30I, I33L)-FLAG3-HIS6 (VHH)
VHH: B1 VHH with G26E, G28T, S30I, I32M, I33L
notes: also called P0150047
B11: P01500048: P01500001(S30I, D72P)-FLAG3-HIS6 (VHH)
VHH: B1 VHH with S30I, I32M, D72P
notes: also called P0150048
B12: P01500049: P01500001(G26E)-FLAG3-HIS6 (VHH)
VHH: B1 VHH with G26E, I32M
notes: also called P0150049
B13: P01500050: P01500001(G28T, D72P)-FLAG3-HIS6 (VHH)
VHH: B1 VHH with G28T, I32M, D72P
notes: also called P0150050
B14: P01500051: P01500001(D72E, N73G)-FLAG3-HIS6 (VHH)
VHH: B1 VHH with I32M, D72E, N73G
notes: also called P0150051
B15: P01500052: P01500001(V51R, D72E)-FLAG3-HIS6 (VHH)
VHH: B1 VHH with I32M, V51R, D72E
notes: also called P0150052
B16: P01500053: P01500001(S30I, I33L, N73P)-FLAG3-HIS6 (VHH)
VHH: B1 VHH with S30I, I32M, I33L, N73P
notes: also called P0150053
B17: P01500054: P01500001(I33L, N73P)-FLAG3-HIS6 (VHH)
VHH: B1 VHH with I32M, I33L, N73P
notes: also called P0150054
B18: P01500055: P01500001(V51R, D72E, N73G)-FLAG3-HIS6 (VHH)
VHH: B1 VHH with I32M, V51R, D72E, N73G
notes: also called P0150055
B19: P01500056: P01500001(I33L, D72P, N73G)-FLAG3-HIS6 (VHH)
VHH: B1 VHH with I32M, I33L, D72P, N73G
notes: also called P0150056
B20: P01500057: P01500001(G26E, G28P, D72E, N73G)-FLAG3-HIS6 (VHH)
VHH: B1 VHH with G26E, G28P, I32M, D72E, N73G
notes: also called P0150057
B21: P01500058: P01500001(G26E, G28P)-FLAG3-HIS6 (VHH)
VHH: B1 VHH with G26E, G28P, I32M
notes: also called P0150058
B22: P01500059: P01500001(G26E, D72E)-FLAG3-HIS6 (VHH)
VHH: B1 VHH with G26E, I32M, D72E
notes: also called P0150059
B23: P01500082: P0150001 with A24V, S27L, M32I (VHH)
VHH: B1 VHH with A24V, S27L
B24: P01500083: P0150001 with A24V, S27L, M32I, N76D (VHH)
VHH: B1 VHH with A24V, S27L, N76D
B25: P01500084: P0150001 with A24V, S27T, M32I, N76D (VHH)
VHH: B1 VHH with A24V, S27T, N76D
B26: P01500085: P0150001 with A24V, S27L, M32P (VHH)
VHH: B1 VHH with A24V, S27L, I32P
B27: P01500086: P0150001 with A24L, S27A, M32P (VHH)
VHH: B1 VHH with A24L, S27A, I32P
B28: P01500087: P0150001 with A24L, S27A, M32P, N67E (VHH)
VHH: B1 VHH with A24L, S27A, I32P, N76E
B29: P01500088: P0150001 with S27T, M32I (VHH)
VHH: B1 VHH with S27T

Columns and labels:
[1] = target: T1, human folate receptor alpha (hFRα), recombinant protein (human, UniProt P15328 25-233); assay: BLI
T1 construct: Bought recombinant proteins (His-tagged, or biotinylated via Avi-tag, e.g. AcroBiosystems FO1-H82E2, F01-H52H1); also called hFOLR1; huFOLR1
In short: (§1)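 Biotinylated human and mouse folate receptor alpha were immobilised on streptavidin biosensors, and off-rates were read by biolayer interferometry, with a 1:1 binding model applied in the calculation. Each variant's koff is expressed as a signed fold change relative to its wild-type VHH, positive as wild-type over variant for a better off-rate and negative as variant over wild-type for a worse one.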

[2] = target: T2, mouse folate receptor alpha (mFRα), recombinant protein (mouse, UniProt P35846 25-232); assay: BLI
T2 construct: Bought recombinant proteins (e.g. biotinylated, Acro Biosystems FO1-M82E9); also called mFOLR1; Ms FOLR1
In short: as §1

[3] = target: T1, human folate receptor alpha (hFRα), …; assay: BLI, Avi-biotinylated FRα
Procedure: (§2) Purified VHHs ^{∘}100 nM) were analysed for binding to avi-tagged biotinylated FRα protein captured on streptavidin-biosensors via BLI.
(§3) Off-rates of purified variants were determined to human, mouse, and cynomolgus FRα in BLI. In addition, binding of the affinity optimised variants to cell-expressed human FRα on HeLa cells was determined by flow cytometry ^{∘}FIG. 10 B).

[4] = target: T2, mouse folate receptor alpha (mFRα), …; assay: BLI, Avi-biotinylated FRα
Procedure: as §2, §3

[5] = target: T1, human folate receptor alpha (hFRα), …; assay: BLI, purified VHH
In short: (§4)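 Off-rates to folate receptor alpha from human, mouse and cynomolgus were measured by biolayer interferometry. The VHH proteins tested were made with a flag3-His6 tag in TG-1 E. coli at 0.5 L scale and isolated from the periplasm on Ni Sepharose FastFlow columns.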

[6] = target: T3, cynomolgus folate receptor alpha, recombinant (cynomolgus, UniProt A0A2K5U044 25-233); assay: BLI, purified VHH
T3 construct: also called cyFOLR1; cynomolgus FRα
In short: as §4

[7] = target: T2, mouse folate receptor alpha (mFRα), …; assay: BLI, purified VHH
In short: as §4

[8] = target: T4, human folate receptor alpha expressed on cells (transfected HEK293T, HeLa, MCF7, MDA-MB-231) (human, UniProt P15328 25-234); assay: flow cytometry on HeLa cells, anti-Flag detection
T4 construct: HEK293T transiently transfected with human FOLR1; also called native human FRα; cell-expressed human FOLR1
Procedure: EC₅₀ values are found in Table 9. Detection of VHH cell binding was done through anti-Flag M2 mIgG1 followed by anti-mFc-PE in flow cytometry. Results are depicted as mean fluorescence intensity ^{∘}MFI).
as §3

T3 sequence (A0A2K5U044 entry or part of it): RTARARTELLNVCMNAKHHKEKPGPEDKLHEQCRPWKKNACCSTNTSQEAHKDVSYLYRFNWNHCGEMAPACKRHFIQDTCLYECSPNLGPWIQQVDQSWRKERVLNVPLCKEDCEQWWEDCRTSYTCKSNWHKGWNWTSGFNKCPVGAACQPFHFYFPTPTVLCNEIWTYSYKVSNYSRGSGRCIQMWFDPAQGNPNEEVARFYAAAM
T2 sequence (P35846 25-232 limits assumed): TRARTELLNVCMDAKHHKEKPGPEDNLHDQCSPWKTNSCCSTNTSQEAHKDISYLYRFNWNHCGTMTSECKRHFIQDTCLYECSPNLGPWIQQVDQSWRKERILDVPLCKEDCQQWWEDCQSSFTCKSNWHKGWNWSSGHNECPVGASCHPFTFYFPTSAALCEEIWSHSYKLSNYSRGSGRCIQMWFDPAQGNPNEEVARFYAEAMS
T4 sequence (P15328 25-234 limits assumed): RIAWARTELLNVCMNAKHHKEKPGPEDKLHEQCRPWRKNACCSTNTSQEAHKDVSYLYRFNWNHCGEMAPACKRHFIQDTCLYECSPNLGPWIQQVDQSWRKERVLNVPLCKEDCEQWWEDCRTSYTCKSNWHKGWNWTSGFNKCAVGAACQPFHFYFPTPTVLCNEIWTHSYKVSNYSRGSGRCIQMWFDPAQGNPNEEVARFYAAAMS
T1 sequence (P15328 25-233 limits assumed): as the sequence (A0A2K5U044 entry or part of it) above, with T2I, R4W, K37R, P146A, Y171H counted along it

Row | koff [1] [s⁻¹] | nm (Fold wt) [1] | koff [2] [s⁻¹] | nm (Fold wt) [2] | koff [3] | koff [4] | koff [5] [s⁻¹] | koff [6] [s⁻¹] | koff [7] [s⁻¹] | EC50 [8] [nM] | MFI top [8] [MFI] | Binder
1 | 0.0712 | 5.4 | 0.00762 | 4.7 | – | – | – | – | – | – | – | B1
2 | 0.0255 | 2 | 0.00241 | 1.5 | – | – | – | – | – | – | – | B2
3 | – | – | – | – | 0.000206 s⁻¹ | 8.33e-05 s⁻¹ | – | – | – | – | – | B3
4 | – | – | – | – | 0.00113 s⁻¹ | 0.000191 s⁻¹ | 0.00094 | 0.00014 | 0.00014 | 4.2 | 63000 | B4
5 | – | – | – | – | 0.00338 s⁻¹ | 0.00038 s⁻¹ | 0.00274 | 0.00038 | 0.00038 | 5.19 | 54700 | B5
6 | – | – | – | – | 0.000639 s⁻¹ | 0.000114 s⁻¹ | 0.000534 | 0.000428 | 0.000114 | 2.4 | 60200 | B6
7 | – | – | – | – | 0.000555 s⁻¹ | 0.000126 s⁻¹ | 0.000464 | 0.000737 | 0.000126 | 3.29 | 64100 | B7
8 | – | – | – | – | 0.00187 s⁻¹ | 0.00036 s⁻¹ | 0.00157 | 0.00036 | 0.00036 | 4.71 | 58900 | B8
9 | – | – | – | – | 0.00371 s⁻¹ and 0.004 s⁻¹ | 0.000777 s⁻¹ and 0.000731 s⁻¹ | 0.00361 | 0.0036 | 0.000754 | 6.91 | 50800 | B9
10 | – | – | – | – | 0.00119 s⁻¹ | 0.000219 s⁻¹ | 0.000971 | 0.000219 | 0.000219 | 3.19 | 59100 | B10
11 | – | – | – | – | 0.00147 s⁻¹ | 0.000142 s⁻¹ | 0.0013 | 0.00133 | 0.000142 | 2.46 | 59800 | B11
12 | – | – | – | – | 0.00648 s⁻¹ | 0.000826 s⁻¹ | 0.00569 | 0.000393 | 0.00105 | 10.9 | 46600 | B12
13 | – | – | – | – | 0.00128 s⁻¹ | 0.000168 s⁻¹ | 0.00105 | 0.00109 | 0.000168 | 3.61 | 62500 | B13
14 | – | – | – | – | 0.000474 s⁻¹ and 0.000555 s⁻¹ | 4.99e-05 s⁻¹ and 8.33e-05 s⁻¹ | 0.000546 | 0.00078 | 8.41e-05 | 3.31 | 61000 | B14
15 | – | – | – | – | 0.0018 s⁻¹ | 0.000246 s⁻¹ | 0.00146 | 0.00281 | 0.000246 | 4.35 | 53900 | B15
16 | – | – | – | – | 0.000922 s⁻¹ and 0.00105 s⁻¹ | 0.000167 s⁻¹ and 0.000214 s⁻¹ | 0.000943 | 0.000167 | 0.000191 | 2.63 | 51200 | B16
17 | – | – | – | – | 0.000937 s⁻¹ | 0.000147 s⁻¹ | 0.000968 | 0.000147 | 0.000147 | 5.18 | 55800 | B17
18 | – | – | – | – | 0.000382 s⁻¹ | 2.4e-05 s⁻¹ | 0.000382 | 4.24e-05 | 2.4e-05 | 3.77 | 59000 | B18
19 | – | – | – | – | 0.000295 s⁻¹ | 3.38e-05 s⁻¹ | 0.000265 | 0.00034 | 3.38e-05 | 2.52 | 55300 | B19
20 | – | – | – | – | 0.000316 s⁻¹ | 2.11e-05 s⁻¹ | 0.000307 | 0.000234 | 2.11e-05 | 2.56 | 53800 | B20
21 | – | – | – | – | 0.00285 s⁻¹ | 0.000484 s⁻¹ | 0.00318 | 0.00369 | 0.000484 | – | – | B21
22 | – | – | – | – | 0.0019 s⁻¹ | 0.000292 s⁻¹ | 0.00204 | 0.000292 | 0.000333 | – | – | B22
23 | – | – | 0.0618 | 38 | – | – | – | – | – | – | – | B23
24 | – | – | 0.0975 | 60 | – | – | – | – | – | – | – | B24
25 | 0.0336 | 2.5 | 0.00649 | 4 | – | – | – | – | – | – | – | B25
26 | 0.0159 | 1.2 | 0.00176 | 1.1 | – | – | – | – | – | – | – | B26
27 | 0.024 | 1.8 | 0.0035 | 2.1 | – | – | – | – | – | – | – | B27
28 | 0.0269 | 2 | 0.00376 | 2.3 | – | – | – | – | – | – | – | B28
29 | 0.381 | 29 | 0.0154 | 9.4 | – | – | – | – | – | – | – | B29
